# Target: HTRA1-inhibiting peptides (Example 3-2 and 3-3, members not named)
row,Protein,protease activity (decomposition of a peptide substrate)
1,Human chymase (protein) IIGGTECKPHSRPYMAYLEIVTSNGPSKFCGGFLIRRNFVLTAAHCAGRSITVTLGAHNITEEEDTWQKLEVIKQFRHPKYNTSTLHHDIMLLKLKEKASLTLAVGTLPFPSQFNFVPPGRMCRVAGWGRTGVLKPGSDTLQEVKLRLMDPQACSHFRDFDHNLQLCVGNPRKTKSAFKGDSGGPLLCAGVAQGIVSYGRSDAKPPAVFTRISHYRPWINQILQAN,did not suppress the protease activity of any of the proteases at a final inhibitor concentration of 1 micro M
2,Human plasmin (protein) KVYLSECKTGNGKNYRGTMSKTKNGITCQKWSSTSPHRPRFSPATHPSEGLEENYCRNPDNDPQGPWCYTTDPEKRYDYCDILECEEECMHCSGENYDGKISKTMSGLECQAWDSQSPHAHGYIPSKFPNKNLKKNYCRNPDRELRPWCFTTDPNKRWELCDIPRCTTPPPSSGPTYQCLKGTGENYRGNVAVTVSGHTCQHWSAQTPHTHNRTPENFPCKNLDENYCRNPDGKRAPWCHTTNSQVRWEYCKIPSCDSSPVSTEQLAPTAPPELTPVVQDCYHGDGQSYRGTSSTTTTGKKCQSWSSMTPHRHQKTPENYPNAGLTMNYCRNPDADKGPWCFTTDPSVRWEYCNLKKCSGTEASVVAPPPVVLLPDVETPSEEDCMFGNGKGYRGKRATTVTGTPCQDWAAQEPHRHSIFTPETNPRAGLEKNYCRNPDGDVGGPWCYTTNPRKLYDYCDVPQCAAPSFDCGKPQVEPKKCPGRVVGGCVAHPHSWPWQVSLRTRFGMHFCGGTLISPEWVLTAAHCLEKSPRPSSYKVILGAHQEVNLEPHVQEIEVSRLFLEPTRKDIALLKLSSPAVITDKVIPACLPSPNYVVADRTECFITGWGETQGTFGAGLLKEAQLPVIENKVCNRYEFLNGRVQSTELCAGHLAGGTDSCQGDSGGPLVCFEKDKYILQGVTSWGLGCARPNKPGVYVRVSRFVTWIEGVMRNN,did not suppress the protease activity of any of the proteases at a final inhibitor concentration of 1 micro M
3,Human matriptase (protein) VVGGTDADEGEWPWQVSLHALGQGHICGASLISPNWLVSAAHCYIDDRGFRYSDPTQWTAFLGLHDQSQRSAPGVQERRLKRIISHPFFNDFTFDYDIALLELEKPAEYSSMVRPICLPDASHVFPAGKAIWVTGWGHTQYGGTGALILQKGEIRVINQTTCENLLPQQITPRMMCVGFLSGGVDSCQGDSGGPLSSVEADGRIFQAGVVSWGDGCAQRNKPGVYTRLPLFRDWIKENTGV,did not suppress the protease activity of any of the proteases at a final inhibitor concentration of 1 micro M
4,Human tPA (protein) SYQVICRDEKTQMIYQQHQSWLRPVLRSNRVEYCWCNSGRAQCHSVPVKSCSEPRCFNGGTCQQALYFSDFVCQCPEGFAGKCCEIDTRATCYEDQGISYRGTWSTAESGAECTNWNSSALAQKPYSGRRPDAIRLGLGNHNYCRNPDRDSKPWCYVFKAGKYSSEFCSTPACSEGNSDCYFGNGSAYRGTHSLTESGASCLPWNSMILIGKVYTAQNPSAQALGLGKHNYCRNPDGDAKPWCHVLKNRRLTWEYCDVPSCSTCGLRQYSQPQFRIKGGLFADIASHPWQAAIFAKHRRSPGERFLCGGILISSCWILSAAHCFQERFPPHHLTVILGRTYRVVPGEEEQKFEVEKYIVHKEFDDDTYDNDIALLQLKSDSSRCAQESSVVRTVCLPPADLQLPDWTECELSGYGKHEALSPFYSERLKEAHVRLYPSSRCTSQHLLNRTVTDNMLCAGDTRSGGPQANLHDACQGDSGGPLVCLNDGRMTLVGIISWGLGCGQKDVPGVYTKVTNYLDWIRDNMRP,did not suppress the protease activity of any of the proteases at a final inhibitor concentration of 1 micro M
5,Human HTRA2 (protein) AVPSPPPASPRSQYNFIADVVEKTAPAVVYIEILDRHPFLGREVPISNGSGFVVAADGLIVTNAHVVADRRRVRVRLLSGDTYEAVVTAVDPVADIATLRIQTKEPLPTLPLGRSADVRQGEFVVAMGSPFALQNTITSGIVSSAQRPARDLGLPQTNVEYIQTDAAIDFGNSGGPLVNLDGEVIGVNTMKVTAGISFAIPSDRLREFLHRGEKKNSSSGISGSQRRYIGVMMLTLSPSILAELQLREPSFPDVQHGVLIHKVILGSPAHRAGLRPGDVILAIGEQMVQNAEDVYEAVRTQSQLAVQIRRGRETLTLYVTPEVTE,did not suppress the protease activity of any of the proteases at a final inhibitor concentration of 1 micro M

# Reference: patent US20200377573
